# Legend:
# stromelysin 1 = stromelysin 1 (Homo sapiens, UniProt P08254); experiment: Inhibition with type II collagen, FlSub3 cleavage; type: biochemical; settings: for Improvement In Selectivity (Strom1 v Col-3): 44 ug/ml Type II Collagen vs no Type II Collagen, FlSb3; for Average Percent Inhibition from 1.1 to 6.6 Hours / Average Percent Inhibition: STR1(.80 nM)
# Method: (§1) In a 96 well plate, collagenase 3 (0.013 nM), collagenase 1 (1.25 nM), stromelysin 1 (0.8 nM), gelatinase A (0.025 nM), or gelatinase B (0.008 nM) were reacted with 20 uM FlSub3 in standard assay buffer in the presence of varying concentrations of bovine type II collagen (0.18-44 ug/ml). The type II collagen, a 1 mg/ml stock in 0.5M acetic acid, was transferred into assay buffer by passing the material through a biospin P6 column from Amersham. The reaction was initiated by addition of substrate to enzyme containing either buffer or an appropriate amount of type II collagen. Data points were taken every 15 min over a period of 15 hours using an excitation and emission wavelength of 350 and 485 nm respectively. The usable data (1-6 hours), was taken and the percent inhibition by type II collagen was calculated for each enzyme and plotted as a function of inhibitor concentration and time in the assay. It should be noted that the percent inhibition varies with time as the bovine substrate is consumed during the reaction course.
# collagenase 1 = biological target: T1, collagenase 1 (Homo sapiens, UniProt P03956); experiment: Inhibition with type II collagen, FlSub3 cleavage; type: biochemical; settings: for Improvement In Selectivity (Col-1 v Col-3): 44 ug/ml Type II Collagen vs no Type II Collagen, FlSb3; for Average Percent Inhibition from 1.1 to 6.6 Hours / Average Percent Inhibition: COL1(1.25 nM)
# T1 sequence (P03956 100-469): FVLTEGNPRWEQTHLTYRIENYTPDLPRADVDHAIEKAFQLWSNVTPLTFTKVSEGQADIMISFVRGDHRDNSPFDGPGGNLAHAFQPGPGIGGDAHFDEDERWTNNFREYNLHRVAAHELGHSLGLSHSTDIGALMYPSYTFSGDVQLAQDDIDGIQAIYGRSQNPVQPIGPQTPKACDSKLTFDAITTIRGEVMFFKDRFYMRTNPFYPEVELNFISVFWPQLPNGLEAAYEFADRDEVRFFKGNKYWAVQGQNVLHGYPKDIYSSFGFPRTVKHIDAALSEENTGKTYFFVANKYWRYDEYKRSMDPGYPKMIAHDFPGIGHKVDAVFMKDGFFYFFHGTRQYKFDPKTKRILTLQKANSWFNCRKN
# Method: as §1
# [1] = TypeIICOL(1.6 ug/ul), FISb3, hour 0.10 to 1.10
# [2] = TypeIICOL(1.6 ug/ul), FISb3, hour 1.10 to 2.10
# [3] = TypeIICOL(1.6 ug/ul), FISb3, hour 1.10 to 6.60
# [4] = TypeIICOL(1.6 ug/ul), FISb3, hour 2.10 to 3.10
# [5] = TypeIICOL(1.6 ug/ul), FISb3, hour 3.10 to 4.10
# [6] = TypeIICOL(1.6 ug/ul), FISb3, hour 4.10 to 5.10
# [7] = TypeIICOL(1.6 ug/ul), FISb3, hour 5.10 to 6.10
# [8] = TypeIICOL(4.9 ug/ul), FISb3, hour 0.10 to 1.10
# [9] = TypeIICOL(4.9 ug/ul), FISb3, hour 1.10 to 2.10
# [10] = TypeIICOL(4.9 ug/ul), FISb3, hour 1.10 to 6.60
# [11] = TypeIICOL(4.9 ug/ul), FISb3, hour 2.10 to 3.10
# [12] = TypeIICOL(4.9 ug/ul), FISb3, hour 3.10 to 4.10
# [13] = TypeIICOL(4.9 ug/ul), FISb3, hour 4.10 to 5.10
# [14] = TypeIICOL(4.9 ug/ul), FISb3, hour 5.10 to 6.10
# [15] = TypeIICOL(15 ug/ul), FISb3, hour 0.10 to 1.10
# [16] = TypeIICOL(15 ug/ul), FISb3, hour 1.10 to 2.10
# [17] = TypeIICOL(15 ug/ul), FISb3, hour 1.10 to 6.60
# [18] = TypeIICOL(15 ug/ul), FISb3, hour 2.10 to 3.10
# [19] = TypeIICOL(15 ug/ul), FISb3, hour 3.10 to 4.10
# [20] = TypeIICOL(15 ug/ul), FISb3, hour 4.10 to 5.10
# [21] = TypeIICOL(15 ug/ul), FISb3, hour 5.10 to 6.10
# [22] = TypeIICOL(44 ug/ul), FISb3, hour 0.10 to 1.10
# [23] = TypeIICOL(44 ug/ul), FISb3, hour 1.10 to 2.10
# [24] = TypeIICOL(44 ug/ul), FISb3, hour 1.10 to 6.60
# [25] = TypeIICOL(44 ug/ul), FISb3, hour 2.10 to 3.10
# [26] = TypeIICOL(44 ug/ul), FISb3, hour 3.10 to 4.10
# [27] = TypeIICOL(44 ug/ul), FISb3, hour 4.10 to 5.10
# [28] = TypeIICOL(44 ug/ul), FISb3, hour 5.10 to 6.10
# [29] = TypeIICOL(.18 ug/ul), FISb3, hour 0.10 to 1.10
# [30] = TypeIICOL(.18 ug/ul), FISb3, hour 1.10 to 2.10
# [31] = TypeIICOL(.18 ug/ul), FISb3, hour 1.10 to 6.60
# [32] = TypeIICOL(.18 ug/ul), FISb3, hour 2.10 to 3.10
# [33] = TypeIICOL(.18 ug/ul), FISb3, hour 3.10 to 4.10
# [34] = TypeIICOL(.18 ug/ul), FISb3, hour 4.10 to 5.10
# [35] = TypeIICOL(.18 ug/ul), FISb3, hour 5.10 to 6.10
# stromelysin 1, sequence (P08254 100-477): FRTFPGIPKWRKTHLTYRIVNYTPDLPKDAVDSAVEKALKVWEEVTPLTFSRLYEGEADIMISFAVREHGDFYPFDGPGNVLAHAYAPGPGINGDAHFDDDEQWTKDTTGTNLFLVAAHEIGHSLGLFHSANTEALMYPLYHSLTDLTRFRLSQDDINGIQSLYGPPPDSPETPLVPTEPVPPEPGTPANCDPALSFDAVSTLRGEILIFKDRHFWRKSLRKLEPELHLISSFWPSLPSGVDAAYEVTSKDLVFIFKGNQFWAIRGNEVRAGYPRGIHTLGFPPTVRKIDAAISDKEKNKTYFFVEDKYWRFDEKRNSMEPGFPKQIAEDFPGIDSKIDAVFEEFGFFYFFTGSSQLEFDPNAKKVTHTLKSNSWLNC
substance,measurement,setting,value
"Type II Collagen: bovine type II collagen, full length MMP substrate used as inhibitor of gelatinases",Improvement In Selectivity (Strom1 v Col-3),stromelysin 1,2.5 fold
same,Improvement In Selectivity (Strom1 v Col-3),stromelysin 1; listed as collagen,four
same,Average Percent Inhibition from 1.1 to 6.6 Hours,stromelysin 1; Type II Collagen 0.18 ug/ml,15%
same,Average Percent Inhibition from 1.1 to 6.6 Hours,stromelysin 1; Type II Collagen 0.54 ug/ml,13%
same,Average Percent Inhibition from 1.1 to 6.6 Hours,stromelysin 1; Type II Collagen 1.63 ug/ml,19%
same,Average Percent Inhibition from 1.1 to 6.6 Hours,stromelysin 1; Type II Collagen 4.89 ug/ml,12%
same,Average Percent Inhibition from 1.1 to 6.6 Hours,stromelysin 1; Type II Collagen 14.67 ug/ml,18%
same,Average Percent Inhibition from 1.1 to 6.6 Hours,stromelysin 1; Type II Collagen 44.00 ug/ml,19%
same,Average Percent Inhibition,stromelysin 1; [1],−10%
same,Average Percent Inhibition,stromelysin 1; [2],24%
same,Average Percent Inhibition,stromelysin 1; [3],19%
same,Average Percent Inhibition,stromelysin 1; [4],22%
same,Average Percent Inhibition,stromelysin 1; [5],18%
same,Average Percent Inhibition,stromelysin 1; [6],17%
same,Average Percent Inhibition,stromelysin 1; [7],16%
same,Average Percent Inhibition,stromelysin 1; [8],50%
same,Average Percent Inhibition,stromelysin 1; [9],23%
same,Average Percent Inhibition,stromelysin 1; [10],12%
same,Average Percent Inhibition,stromelysin 1; [11],11%
same,Average Percent Inhibition,stromelysin 1; [12],8%
same,Average Percent Inhibition,stromelysin 1; [13],8%
same,Average Percent Inhibition,stromelysin 1; [14],8%
same,Average Percent Inhibition,stromelysin 1; [15],57%
same,Average Percent Inhibition,stromelysin 1; [16],28%
same,Average Percent Inhibition,stromelysin 1; [17],18%
same,Average Percent Inhibition,stromelysin 1; [18],18%
same,Average Percent Inhibition,stromelysin 1; [19],14%
same,Average Percent Inhibition,stromelysin 1; [20],13%
same,Average Percent Inhibition,stromelysin 1; [21],14%
same,Average Percent Inhibition,stromelysin 1; [22],62%
same,Average Percent Inhibition,stromelysin 1; [23],32%
same,Average Percent Inhibition,stromelysin 1; [24],19%
same,Average Percent Inhibition,stromelysin 1; [25],18%
same,Average Percent Inhibition,stromelysin 1; [26],14%
same,Average Percent Inhibition,stromelysin 1; [27],14%
same,Average Percent Inhibition,stromelysin 1; [28],14%
same,Average Percent Inhibition,stromelysin 1; [29],22%
same,Average Percent Inhibition,stromelysin 1; [30],22%
same,Average Percent Inhibition,stromelysin 1; [31],15%
same,Average Percent Inhibition,stromelysin 1; [32],15%
same,Average Percent Inhibition,stromelysin 1; [33],12%
same,Average Percent Inhibition,stromelysin 1; [34],12%
same,Average Percent Inhibition,stromelysin 1; [35],12%
same,Average Percent Inhibition,"stromelysin 1; TypeIICOL(.55 ug/ul), FLSb3, hour 0.10 to 1.10",43%
same,Average Percent Inhibition,"stromelysin 1; TypeIICOL(.55 ug/ul), FLSb3, hour 1.10 to 2.10",26%
same,Average Percent Inhibition,"stromelysin 1; TypeIICOL(.55 ug/ul), FLSb3, hour 1.10 to 6.60",13%
same,Average Percent Inhibition,"stromelysin 1; TypeIICOL(.55 ug/ul), FLSb3, hour 2.10 to 3.10",14%
same,Average Percent Inhibition,"stromelysin 1; TypeIICOL(.55 ug/ul), FLSb3, hour 3.10 to 4.10",10%
same,Average Percent Inhibition,"stromelysin 1; TypeIICOL(.55 ug/ul), FLSb3, hour 4.10 to 5.10",8%
same,Average Percent Inhibition,"stromelysin 1; TypeIICOL(.55 ug/ul), FLSb3, hour 5.10 to 6.10",8%
same,Improvement In Selectivity (Col-1 v Col-3),collagenase 1,2.5 fold
same,Improvement In Selectivity (Col-1 v Col-3),collagenase 1; listed as collagen,four
same,Average Percent Inhibition from 1.1 to 6.6 Hours,collagenase 1; Type II Collagen 0.18 ug/ml,0%
same,Average Percent Inhibition from 1.1 to 6.6 Hours,collagenase 1; Type II Collagen 0.54 ug/ml,3%
same,Average Percent Inhibition from 1.1 to 6.6 Hours,collagenase 1; Type II Collagen 1.63 ug/ml,0%
same,Average Percent Inhibition from 1.1 to 6.6 Hours,collagenase 1; Type II Collagen 4.89 ug/ml,2%
same,Average Percent Inhibition from 1.1 to 6.6 Hours,collagenase 1; Type II Collagen 14.67 ug/ml,10%
same,Average Percent Inhibition from 1.1 to 6.6 Hours,collagenase 1; Type II Collagen 44.00 ug/ml,15%
same,Average Percent Inhibition,collagenase 1; [1],19%
same,Average Percent Inhibition,collagenase 1; [2],6%
same,Average Percent Inhibition,collagenase 1; [3],0%
same,Average Percent Inhibition,collagenase 1; [4],0%
same,Average Percent Inhibition,collagenase 1; [5],−2%
same,Average Percent Inhibition,collagenase 1; [6],−3%
same,Average Percent Inhibition,collagenase 1; [7],−4%
same,Average Percent Inhibition,collagenase 1; [8],37%
same,Average Percent Inhibition,collagenase 1; [9],13%
same,Average Percent Inhibition,collagenase 1; [10],2%
same,Average Percent Inhibition,collagenase 1; [11],3%
same,Average Percent Inhibition,collagenase 1; [12],0%
same,Average Percent Inhibition,collagenase 1; [13],−2%
same,Average Percent Inhibition,collagenase 1; [14],−4%
same,Average Percent Inhibition,collagenase 1; [15],44%
same,Average Percent Inhibition,collagenase 1; [16],21%
same,Average Percent Inhibition,collagenase 1; [17],10%
same,Average Percent Inhibition,collagenase 1; [18],12%
same,Average Percent Inhibition,collagenase 1; [19],8%
same,Average Percent Inhibition,collagenase 1; [20],6%
same,Average Percent Inhibition,collagenase 1; [21],4%
same,Average Percent Inhibition,collagenase 1; [22],50%
same,Average Percent Inhibition,collagenase 1; [23],29%
same,Average Percent Inhibition,collagenase 1; [24],15%
same,Average Percent Inhibition,collagenase 1; [25],18%
same,Average Percent Inhibition,collagenase 1; [26],12%
same,Average Percent Inhibition,collagenase 1; [27],9%
same,Average Percent Inhibition,collagenase 1; [28],7%
same,Average Percent Inhibition,collagenase 1; [29],17%
same,Average Percent Inhibition,collagenase 1; [30],3%
same,Average Percent Inhibition,collagenase 1; [31],0%
same,Average Percent Inhibition,collagenase 1; [32],0%
same,Average Percent Inhibition,collagenase 1; [33],−1%
same,Average Percent Inhibition,collagenase 1; [34],−1%
same,Average Percent Inhibition,collagenase 1; [35],−1%
same,Average Percent Inhibition,"collagenase 1; TypeIICOL(.55 ug/ul), FISb3, hour 0.10 to 1.10",15%
same,Average Percent Inhibition,"collagenase 1; TypeIICOL(.55 ug/ul), FISb3, hour 1.10 to 2.10",6%
same,Average Percent Inhibition,"collagenase 1; TypeIICOL(.55 ug/ul), FISb3, hour 1.10 to 6.60",3%
same,Average Percent Inhibition,"collagenase 1; TypeIICOL(.55 ug/ul), FISb3, hour 2.10 to 3.10",3%
same,Average Percent Inhibition,"collagenase 1; TypeIICOL(.55 ug/ul), FISb3, hour 3.10 to 4.10",2%
same,Average Percent Inhibition,"collagenase 1; TypeIICOL(.55 ug/ul), FISb3, hour 4.10 to 5.10",1%
same,Average Percent Inhibition,"collagenase 1; TypeIICOL(.55 ug/ul), FISb3, hour 5.10 to 6.10",1%
same,inhibition of collagenase 1 by type II collagen,"collagenase 1; early timepoints, FlSub3",small but significant inhibition
